In the DeepSol protein solubility set:

Test: soluble on expression in E. coli; label from the status in PepcDB or PDB records

Sequence	soluble on expression in E. coli
MSLCGIAGFFSRRPVNPAVPQAMLDELHRRGPDDASRLLLDSELNPADGGAIHNAMLHARLAIVDPRPVANQPMASDDGQVWICYNGEVYDWEIGKAELEAGGAVFRTHSDTEFILRGYQAWGIEGLLERLRGMFAFAILDKRCEKVHLARDRMGEKPLLYSLQDGDFAYGSLVRAVLPFLPADKRAFSPAAIDAYLAHRYIPSPATVFSHINRLENGYRLEFDLNTRQLTKQRYWQPKAESGDWLPELDRAVAMRTVADRPLGVLLSGGIDSTVIASRLAIQQLTQFSSFTAAFPGSTLDESGDAADSARRMGLPNVRVDMPENLAADFERIVADLDQPFADPSSFPTWYLAREVTKHVKVVLVGDGGDELLAGYKRMGKHLRTRWRQNIRLPLPIKPQLDSKRGKLATELAMDWKSAYSLRFSGFTPGQRSFLQGGRKLEKLCHWRAPDDIGPEPGDGSPGLHQLLELDFANYLPDYILQKSDLCTMAHGLEGRAPLLDHGFYQRLLSTSAAERYTRPAKLIFRRAIHPALPTDFFQRKKRGFNPPLSGWLKTSLAPRFDGLGSRLAEASGGQLDAGAVDAFARAYRDGAGHLAEQMLQLLILDESLTQLRRLCRELGEGHHHHHH	soluble
MTHPLYIFDLDETLINGDCAMIWNEFLVDKGIVTTPDFLEEDKRLMTLYSRGLMDMEDYLIFAMSPLKNIPTDQVEILIEECVNERILPLLFPEAKILIHQLKADNVDMIVISASVSFLVKIVAKNIGIKHAIGIDLKEKNGCYTRHILGVPSYREGKVSRLTEWLNGGDKTYSALHFYTDSINDLPLCLYADHTYLVNPCEQLAVYSKKKNWPILAWGSQ	not soluble
MENFSLLYSSEEDALLSYADIRNFQLVWNMVDIEQKRSIPVRRVKFLLRLLKGRLEVNDESDGLLFKHMCHEMERLHNGDDVSFHDVLNMLSYRSVDIRKSLQLEELLQREELEYIIEEEVAKHTIRAWLENCLKNIKAKQNNTLGKMSSIGSTFAFPQSQEVLTKGVVLTEASPEEDSLQGDKGSGKKKAQRGNSITEIVAEAQKKSVKRATDKISERRGTLRQMQMGTYDELEEVEEDEDTDGEIRRSSFEYSGVDMIQMSHEKQLEDVKTWWTLCD	not soluble
MSLSVSLVYRKARPDDWKGILELYNSLSDDDLYLRFFTFHKLTEEEARKIADTKEHYTVIAEINGKIVGEASIYFDGEFAVVVHPDYRRLGIGTELVKRLIEFAKKNGIKKVRFYTLPENYPMIKIGKKLGFKIIEREDEVYAYLDLTNENVILEKT	soluble
MMSTSDRSRLPLVYACSGCSSVAQLANAFAVRLDRSGQAEMSCISGVGGRVPALTRIAQSGRPILAIDGCQLACVKACLEGVGVVASRHLVLNRIGATKRQHGECTEAEEAATWQSIKLALSEILPVSESVVSN	soluble
MFNKAIVIGGSMAGKFAAKALSTSFKEVIIIEASERWDGKSSRKRVPQSNHPHVLLKGGENAIEELFPNITDELIEAGSIVNNFTRDLKWHQFGLWKQPFIGEVHMIQQSRPLLEWNIQKRIHQISNITIKYETLVKGLLVDEKLNKVCGVKVKYLETDAQEEVHADLVVDASGFGSKSIEWLREYEIEVQEEKVRINLFYATKMFKLKENEELDCCNMLMSPSFPDNPYGVLIQTIEDNRYFVTFSGYANEKAPQTDDEFYDFAENLSISNVTDFLNKAVAISDIKTYKIPYQVRRRFDLTTNMPEGLLVVGDAHCRFDPVFGQGVSVAAMEARQLQLLLQGRKQLDKTFTQQFYKKAATIIETPWEMTTTEISRHPQLKRELTIKQKFQLWYTKQIYQLSATDSDVYIRLVKVMNLIRSPFHLFHPKVLLAVLLKRKKLEHHHHHH	not soluble
MGSQFLLSVREFMQTRYYAKKTIEAYLHWITRYIHFHNKKHPSLMGDKEVEEFLTYLAVQGKVATKTQSLALNSLSFLYKEILKTPLSLEIRFQRSQLERKLPVVLTRDEIRRLLEIVDPKHQLPIKLLYGSGLRLMECMRLRVQDIDFDYGAIRIWQGKGGKNRTVTLAKELYPHLKEQIALAKRYYDRDLHQKNYGGVWLPTALKEKYPNAPYEFRWHYLFPSFQLSLDPESDVMRRHHMNETVLQKAVRRSAQEAGIEKTVTCHTLRHSFATHLLEVGADIRTVQEQLGHTDVKTTQIYTHVLDRGASGVLSPLSRL	soluble
MSLDMNKPEGFDCPGCAWPDPKHSASFDICENGAKAIAWEVTDKQVNASFFAENTVQSLLTWGDHELEAAGRLTQPLKYDAVSDCYKPLSWQQAFDEIGARLQSYSDPNQVEFYTSGRTSNEAAFLYQLFAREYGSNNFPDCSNMCHEPTSVGLAASIGVGKGTVLLEDFEKCDLVICIGHNPGTNHPRMLTSLRALVKRGAKMIAINPLQERGLERFTAPQNPFEMLTNSETQLASAYYNVRIGGDMALLKGMMRLLIERDDAASAAGRPSLLDDEFIQTHTVGFDELRRDVLNSEWKDIERISGLSQTQIAELADAYAAAERTIICYGMGITQHEHGTQNVQQLVNLLLMKGNIGKPGAGICPLRGHSNVQGDRTVGITEKPSAEFLARLGERYGFTPPHAPGHAAIASMQAICTGQARALICMGGNFALAMPDREASAVPLTQLDLAVHVATKLNRSHLLTARHSYILPVLGRSEIDMQKNGAQAVTVEDSMSMIHASRGVLKPAGVMLKSECAVVAGIAQAALPQSVVAWEYLVEDYDRIRNDIEAVLPEFADYNQRIRHPGGFHLINAAAERRWMTPSGKANFITSKGLLEDPSSAFNSKLVMATVRSHDQYNTTIYGMDDRYRGVFGQRDVVFMSAKQAKICRVKNGERVNLIALTPDGKRSSRRMDRLKVVIYPMADRSLVTYFPESNHMLTLDNHDPLSGIPGYKSIPVELEPSNEGHHHHHH	soluble
MGSDKIHHHHHHMLQPHEMHLAGDLLDFLRDPSTAIARDFATQATLMRIASGATVFAEGDECSFFAILADGQIRVFKIGETGREITLYRFGRGESCILTTSCVLSNHQFPAIAVVEREATAFLVGQAIFRDWIERYSAWRDYVFQLLSRRLASVMAIIDEIAFRRVDVRLAAFLLRQAVGDPPTLNLTHQQIAAELGTSREVVSRILADFSEEGLISSSRGQITVCDRTRLYQRSEAR	not soluble
MERTFSEALKNRRTYYSITDQSPIPDQEIECIINLAVRHVPSAFNSQSTRVVLLLGKSHKKLWNIVKDALRKIVPGEAFAKTEEKIDNSFACGYGTVLFFEDQKVVKGLQEAFPSYQENFPGWSLQTSAMHQLAVWVMLEDVGFGASLQHYNPLIDDEVRRAWNLPAHWHLIAEMPFGVPVNKPGEKEFQPLEERIKVFK	not soluble
MERKLFAFDIDGTLLNSEKKALDSTREALAKLREQGHLVTLATGRSRYMAQEVIWDLDFTNYVLCNGAAAFVDHEQYYQNLLHAEALERLAQDSDQRGLGFACVGLDDIKKSNQHRAEKMEIAMNSFHFHSPAYDEHFYRQNDIYQALAFYDAEDQCTFEEEYPEFRFIRWHQHSVDVVPKDGSKSATLTYLAKRVGIDAKNIIAFGDGENDREMLSHAGIGVAMGNASPSIQKVATMVTDTNDNDGIWKALKEMKAI	not soluble
GSHMQQWVDCEFTGRDFRDEDLSRLHTERAMFSECDFSGVNLAESQHRGSAFRNCTFERTTLWHSTFAQCSMLGSVFVACRLRPLTLDDVDFTLAVLGGNDLRGLNLTGCRLRETSLVDTDLRKCVLRGADLSGARTTGARLDDADLRGATVDPVLWRTASLVGARVDVDQAVAFAAAHGLCLAGG	soluble
MGDIDYQAIEFAYTKCADQQRDTPARHCVIVVGAGPVGLTTALDLARQGLRVVVLDDDYRLSTGSRAICFAKRTLEIWDRLGVGQRMVDKGVSWNVGKVFFRDQEVWRFDLLPEPGHRRPAFINLQQYYAEGYLHELASAQPGIELRWKSKVVGVAQQADGVQVTVDTPDGAYALHVDWLVACDGARSPVRKLLDLETHGRVFKDRFLIADVKMAADYPAERWFWFDPPFHPNQSVLLHMQPDNVWRIDFQLGWNADPVEAVKPENVLPRIRALLGPDADFELEWVSVYTFACERMDHFRHGRVVFAGDSAHRVSPFGARGANSGVQDAENLAWKLKLVLAGHAPESLIDSYAAEREYAADENILNSSRSTDFITPKSEVSRTFRNAVLNLARQHPFARTLVNSGRLSVPAAYADSPLNTPDSDPYAGTMRPGAVALDAPVRADAQPGWWLSQLDGGFALALFCGAETPRADMLDALRALQQDEVPVQPILVCDAGAAPAAAPAGVRVVEDSEGWLARRYDARPGTCYLIRPDQHIAARFRAFDAQAVRRALARAIGRALEHHHHHH	not soluble
MSLVDTAKVLILDDQAVSRSILSKIVRNLGRGIKTCEFSSPTEALLWAQDNTADLLLVDYEMPGMNGLCFINEITRLPQYQTVPTIMITIKQDVEIRYAALDAGVTDFLTKPVDMHECMARCKNLITLRQQRLTLEDEGHHHHHH	soluble
MSWTVDIPKEALPDLPPLPDGLQQQFENVIARDAKQQPSWDKATAETVRKILESVPPIVVAPEVRELKQHLADVANGRAFLLQGGDCAETFESNTEPHIRANIKTLLQMAVVLTYGASTPVVKMARIAGQYAKPRSSDLDANGLPNYRGDIVNGVEATEEARRHDPARMIRAYANSSAASNLVRALTSSGTADLHRLTGWNREFVASSPAGARYEALAQEIERGLRFMSACGVNDHTLHSADIFCSHEALVVDYERAMLRLAEDEEGNVELYDLSAHQLWIGERTRGLDDFHVNFAAMIANPIGIKIGPTATPEEVVAYANKLDPNFVPGRLTIVARMGHDKVRDVLPGIVKAVEESGHKVIWQSDPMHGNTFTSSNGYKTRHFDKVIDEVQGFFEVHRALGTHPGGIHIEFTGENVTECLGGAEDITDVDLPGRYESACDPRLNTQQSLELSFLVAEMLRN	not soluble
MKTIRTEEAVGLPLSHDITRIDYGKTKEVCFKKGHIVVQEDIPILLSLGKKHLFVSLDPAEIHEEEAATFLYNLLTDDSCQPSEVHEGKIVAKASTRGLLKVNREKLIALNEIEGLALSTKVTNIEVQKDEKVAAFRVIPLTISKSQLEKARQLSTSEPLISVKPFKKIRVGIVTTGSEVYTGLVEDAFYPVLKAKFSAYPLVTIVKQEIVDDQPQKITVAIKKMLAQGVDLIVCTGGMSVDPDDLTPLAIKQTGAEIVTHGTPVLPGSMFLLAYKGEQTIIGLPGGVLFSEKTVFDLLLPRLMAKEVIKKSEIIDLSYGGYL	not soluble
MNTFKETLFSLKKSNYLLNESAQILNDCVVNNNEIDERLRNSIKFALGIINLASYCLKNEQEQLDHELNHGNEAPWEFSFNEAEQLIECTVKNNFGNEKLVDLIFHIGDAMETYRTTNIKFRVPKSYYDAKQQIRKVIKN	soluble
MGSDKIHHHHHHSFSLPGYLFGRCPDYSITYDKNDAQEQKDVYICDGNKSVVRIDSYKWNSSSSDWVYDGKTVMENDNQGRTLVAISYSAADVAGEKTEYTYTGNGYEKFSVTSSSFEGGAWKAEAKVDIEATFNKDKYPVSILMTGTAEGETFKMKMEWSYDKNVTKTSSSIDFGGSWMLMSESKTEIVDAGNPMISKNYQKMYFPAETSWEYSGKTHDYFNGTTSIAPVVEENELKLHIYGDVLEVQGTESGISIYAITGGKMAESKSNRIDISRLPAGIYLLNTARGSIKFIHK	not soluble
MEITDVRLRRVETDGRMKAISSITIDGEFVIHDIRVIDGNEGLFVAMPSKRTPDGEFRDIAHPINSGTRAKIQEAVLAAYEVADEPAVNEESSADESVVEEN	not soluble
MADRGGFQSGFGGRGGGRGGARPAGDRPAGRGGRGGRGGRGGRGGRAGRGGEKETEWTPVTKLGRLVKEKKITTLEEIYLNSLPIKEFEIIDALCSNLKDEVLKISPVQKQTTAGQRTRFKAFVAIGDHAGHVGLGVKCSKEVATAIRGAIVAAKLAVVPVRRGYWGNKIGLPHTVPCKVTGKCASVMVRLIPAPRGTGIVSAPVPKKLLHMAGIEDCYTAAKGSTATLGNFAKATYAALQRTYSYLTPDLWKEEALEKSPYQRHHEYLARN	not soluble
